Measurements published in doi:10.1101/2024.10.23.619877.

Target: 20S proteasome (human housekeeping 20S core) (human) (UniProt P60900)
Assay: AFM imaging with morphometric analysis of single particles

Chain of UniProt P60900 (P60900 whole entry, looked up): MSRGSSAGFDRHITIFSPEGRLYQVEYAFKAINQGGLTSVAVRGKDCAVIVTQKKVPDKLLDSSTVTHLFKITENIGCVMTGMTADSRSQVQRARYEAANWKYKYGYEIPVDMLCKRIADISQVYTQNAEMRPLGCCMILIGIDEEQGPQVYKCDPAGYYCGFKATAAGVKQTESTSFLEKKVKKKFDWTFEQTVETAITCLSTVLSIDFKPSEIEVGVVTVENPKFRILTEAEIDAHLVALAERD

19S regulatory particle (complex)
percent of particles that are 26S proteasomes (with 2 µM Aβ42 oligomers): 52.9% | percent of particles that are 26S proteasomes (without Aβ): 75.8%
